Results: US20150232546A1 (THROMBOGENICS, published 2015)
Where two headings read alike, the source gives them in different places. Ends that are not written are not given here. * marks the point of attachment. Biotin = O=C1N[C@H]2[C@H](CS[C@H]2CCCCC(=O)*)N1

T1: human PDGF-C peptide no. 9 (human)
T1 peptide: Biotin-FPHTYPRNTVLVWRL

T2: human PDGF-C peptide no. 27 (human)
T2 peptide: Biotin-EPGFCIHYNIVMPQF

T3: human PDGF-C peptide no. 58 (human)
T3 peptide: Biotin-VLQLRPKTGVRGLHK


Columns and labels:
[1] = target: T4, Recombinant human PDGF-C from R&D Systems (1687-CC/CF; Val235-Gly345) (human, UniProt Q9NRA1 235-345); assay: cell-based or functional assay
[2] = target: T4, Recombinant human PDGF-C from R&D …; assay: cell-based or functional assay; remark: listed apart in the source
[3] = target: T4, Recombinant human PDGF-C from R&D …; assay: SPR (Biacore 3000), antibody amine-coupled to CM5 chip, PDGF-C injected, 1:1 fit
Experimental: (§1) The different antibodies were each separately coated to a CM5 chip at a density of 1680 RU using standard amine chemistry. Different concentrations (200, 175, 150, 125, 100, 75, 50, 25, 12.5, 6.25, 3.125 & 0 nM) of PDGF-C (R&D Systems, Cat. 1687-CC/CF) were injected over the coated antibody for 5 min, then buffer was flowed for 10 min to monitor the dissociation of the captured antigen. The surface was regeneration between each run with a single injection of glycine-HCl, pH 2.5. Affinities were obtained by analyzing the sensorgrams with the help of the BIAevaluation 4.1 software assuming a 1:1 interaction. The experiment was performed with a Biacore 3000 instrument.

[4] = target: T4, Recombinant human PDGF-C from R&D …; assay: cell-based or functional assay; remark: listed apart in the source
[5] = target: T1, human PDGF-C peptide no. 9; assay: peptide ELISA, signal to background >3
Experimental: (§2) The indicated peptides where synthesized in an N-terminally biotinylated form and coated onto a neutravidin plate (Thermo Scientific, Cat. 15127) at a concentration of 10 μg/mL. […] Each antibody was tested at least twice, and up to 4 times. A “+” in the table indicate that a signal to background >3 was found and confirmed at least once. The background signal was measured in the absence of peptide using both the primary and the secondary antibodies.

[6] = target: T2, human PDGF-C peptide no. 27; assay: peptide ELISA, signal to background >3
Experimental: as §2

[7] = target: T3, human PDGF-C peptide no. 58; assay: peptide ELISA, signal to background >3
Experimental: as §2

[8] = target: T4, Recombinant human PDGF-C from R&D …; assay: SPR as in Example 3
Experimental: as §1
The affinity of the above-listed exemplary humanized anti-PDGF-C antibodies for PDGF-C was analysed (as in Example 3) and the humanized antibodies were subsequently assessed in the in vitro bioassay described in Example 4. A technical problem with the (preparation of) humanized antibody 5H7 may explain why this antibody is apparently not inhibiting activation of PDGFR-α although it is still binding with high affinity to PDGF-C; this is under further investigation.

[9] = target: T4, Recombinant human PDGF-C from R&D …; assay: cell-based or functional assay; remark: listed apart in the source

T4 sequence (Q9NRA1 235-345 limits assumed, form in doubt): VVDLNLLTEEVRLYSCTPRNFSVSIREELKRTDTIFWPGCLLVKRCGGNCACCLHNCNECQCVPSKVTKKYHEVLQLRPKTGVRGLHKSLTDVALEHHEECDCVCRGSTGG

IC50 value (nM), PathHunter PDGFRα assay [1] [nM] | % PDGF-Rα activation by PDGF-C allowed at 1.85 µg/mL antibody (100% = no antibody) [2] [%] | Kd [3] [nM] | % PDGFRα activation in the PathHunter PDGFRα assay at 5.56 µg/ml antibody with PDGF-CC at EC80 (no Ab with PDGF-CC = 100, no Ab without PDGF-CC = 24) [4] [%] | % PDGFRα activation in the PathHunter PDGFRα assay at 16.67 µg/ml antibody with PDGF-CC at EC80 (no Ab with PDGF-CC = 100, no Ab without PDGF-CC = 24) [4] [%] | % PDGFRα activation in the PathHunter PDGFRα assay at 50 µg/ml antibody with PDGF-CC at EC80 (no Ab with PDGF-CC = 100, no Ab without PDGF-CC = 24) [4] [%] | binding result [5] | binding result [6] | binding result [7] | Kd [8] [nM] | IC50 value (nM), PathHunter PDGFRα assay [9] [nM] | Binder
0.65 | – | – | – | – | – | – | – | – | – | – | recombinant human PDGFRα Fc chimera (6765-PR from R&D Systems) (Fc fusion, not shown: a dimerising Fc or GST) QLSLPSILPNENEKVVQLNSSFSLRCFGESEVSWQYPMSEEESSDVEIRNEENNSGLFVTVLEVSSASAAHTGLYTCYYNHTQTEENELEGRHIYIYVPDPDVAFVPLGMTDYLVIVEDDDSAIIPCRTTDPETPVTLHNSEGVVPASYDSRQGFNGTFTVGPYICEATVKGKKFQTIPFNVYALKATSELDLEMEALKTVYKSGETIVVTCAVFNNEVVDLQWTYPGEVKGKGITMLEEIKVPSIKLVYTLTVPEATVKDSGDYECAARQATREVKEMKKVTISVHEKGFIEIKPTFSQLEAVNLHEVKHFVVEVRAYPPPRISWLKNNLTLIENLTEITTDVEKIQEIRYRSKLKLIRAKEEDSGHYTIVAQNEDAVKSYTFELLTQVPSSILDLVDDHHGSTGGQTVRCTAEGTPLPDIEWMICKDIKKCNNETSWTILANNVSNIITEIHSRDRSTVEGRVTFAKVEETIAVRCLAKNLLGAENRELKLVAPTLRSEIEGRMD
3.36 | 30 | 5 | 20 | 17 | 18 | binds | binds | binds | – | – | anti-PDGF-C antibody 5A2 (antibody, IgG2b, V domains shown, Mouse monoclonal from hybridoma, IgG2b, kappa; also called mAb 5A2; hybridoma LMBP 9484CB) VH: EVQLVESGGDLVKPGGSLKLSCAASGFTFSNYGMSWVRQTPDKRLEWVATIGSGGHYTYYPDSVKGRFTISRDSAKSTLYLQMSSLKSEDTAIYYCARQAPLWDCSDYWGQGTTLTVSS VL: DVLMTQTPLSLPVSLGDQASISCRSNQSIVHSNGDTYLEWYLQKPGQSPKLLIYKVSNRFSGVPDRFSGSGSGTDFTLKISRVEAEDLGVYYCFQGSHVPPTFGGGTKLEIK
5.57 | 32 | 2.5 | 24 | 22 | 22 | – | – | binds | – | – | anti-PDGF-C antibody 5H7 (antibody, IgG1, V domains shown, Mouse monoclonal from hybridoma, IgG1, kappa; also called mAb 5H7; hybridoma LMBP 9485CB) VH: EVQLVESGGDLVKPGGSLKLSCAASGFTFSSYGMSWVRQTPDKRLEWVATIGYGGSFTYYPDSMKGRFTISRDNAKNTLFLQMSSLKSEDTAIYYCVRQAPLWDYFDYWGQGTTLTVSS VL: DVLMTQTPLSLPVSLGDQASISCRSSQTIVHSDGTTYLEWYLQKAGQSPKLLIYKVSNRFSGVPDRFSGSGSGTDFTLKISRVEAEDLGVYYCFQGSHVPPTFGGGTKLEIK
7.47 | 49 | 1.5 | 32 | 24 | 23 | – | – | – | – | – | anti-PDGF-C antibody 2D3 (antibody, IgG1, V domains shown, Mouse monoclonal from hybridoma, IgG1, kappa; also called mAb 2D3; hybridoma LMBP 9483CB) VH: EVQLVESGGDLVKPGGSLKLSCAASGFTFSNYGMSWVRQTPDKRLEWVATIGSGGSYTYYPDSVKGRFTISRDSAKNTLYLQMSSLKSEDTAMYYCARQAPLWDYSDYWGQGTTLTVSS VL: DVLMTQTPLSLPVSLGDQASISCRSNQTIVHSNGDTYLEWYLQKPGQSPNLLIYKVSNRFSGVPDRFSGSGSGTDFTLKISRVEAEDLGVYYCFQGSHVPPTFGGGTKLEIK
8.38 | 38 | 1.2 | 24 | 23 | 20 | – | – | – | – | – | anti-PDGF-C antibody 16B1 (antibody, IgG1, V domains shown, Mouse monoclonal from hybridoma, IgG1, kappa; VH same as 2D3, VL same as 5A2; also called mAb 16B1; hybridoma LMBP 9486CB) VH: EVQLVESGGDLVKPGGSLKLSCAASGFTFSNYGMSWVRQTPDKRLEWVATIGSGGSYTYYPDSVKGRFTISRDSAKNTLYLQMSSLKSEDTAMYYCARQAPLWDYSDYWGQGTTLTVSS VL: DVLMTQTPLSLPVSLGDQASISCRSNQSIVHSNGDTYLEWYLQKPGQSPKLLIYKVSNRFSGVPDRFSGSGSGTDFTLKISRVEAEDLGVYYCFQGSHVPPTFGGGTKLEIK
– | 23 | 1.5 | 22 | 21 | 22 | – | – | binds | – | – | anti-PDGF-C antibody 29H1 (antibody, IgG1, V domains shown, Mouse monoclonal from hybridoma, IgG1, kappa; also called mAb 29H1; hybridoma LMBP 9487CB) VH: EVQLVESGGDLVKPGGSLKLSCAASGFTFSNYGMSWVRQTPDKRLEWVATIGSGGHYTYYPDSVKGRFTISRDSAKSTLYLQMSSLRSDDTAIYYCARQAPLWDCSDYWGQGTTLTVSS VL: DVLMTQTPLSLPVSLGDQASISCRSNQSIVHSNGDTYLEWYLQKPGQSPNLLIYKVSNRFSGVPDRFSGSGSGTDFTLKISRVEAEDLGVYYCFQGSHVPPTFGGGTKLEIK
– | – | – | – | – | – | – | – | – | 2.5 | – | Humanized 5H7 anti-PDGF-C antibody (antibody, V domains shown, also called humanized mAb 5H7) VH: EVQLLESGGGLVQPGGSLRLSCAASGFTFSSYGMSWVRQTPGKGLEWVATIGYGGSFTYYPDSMKGRFTISRDNAKNTLYLQMNSLRAEDTAVYYCARQAPLWDYFDYWGQGTLLTVSS VL: DVVMTQSPLSLPVTLGQPASISCRSSQTIVHSDGTTYLEWYLQKPGQSPRLLIYKVSNRFSGVPDRFSGSGSGTDFTLKISRVEAEDVGVYYCFQGSHVPPTFGQGTKLEIK
– | – | – | – | – | – | – | – | – | 0.8 | 4.97 | Humanized 16B1 anti-PDGF-C antibody (antibody, V domains shown, also called humanized mAb 16B1) VH: EVQLLESGGGLVQPGGSLRLSCAASGFTFSNYGMSWVRQTPGKGLEWVATIGSGGSYTYYPDSVKGRFTISRDNAKNTLYLQMNSLRAEDTAVYYCARQAPLWDYSDYWGQGTLLTVSS VL: DVVMTQSPLSLPVTLGQPASISCRSNQSIVHSNGDTYLEWYLQKPGQSPRLLIYKVSNRFSGVPDRFSGSGSGTDFTLKISRVEAEDVGVYYCFQGSHVPPTFGQGTKLEIK
